The supplement of paper PMC10065799, “High-throughput profiling of sequence recognition by tyrosine kinases and SH2 domains using bacterial peptide display” (eLife, 2023)

What follows are sequences tested against FGFR3 (UniProt P22607) (assay: phosphorylation enrichment, bacterial display (enrichment ratio); higher = better substrate or ligand; peptides without Tyr show the background).
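Further: 11-residue human phosphosite peptides and single-mutation variants displayed on the E. coli surface, counted by deep sequencing, each peptide's frequency after selection divided by its frequency in the unselected input library; frequency after pTyr selection over input frequency; kinase dosed for 20-30% of maximal phosphorylation in three min.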

Chain of FGFR3 (P22607 whole entry, looked up): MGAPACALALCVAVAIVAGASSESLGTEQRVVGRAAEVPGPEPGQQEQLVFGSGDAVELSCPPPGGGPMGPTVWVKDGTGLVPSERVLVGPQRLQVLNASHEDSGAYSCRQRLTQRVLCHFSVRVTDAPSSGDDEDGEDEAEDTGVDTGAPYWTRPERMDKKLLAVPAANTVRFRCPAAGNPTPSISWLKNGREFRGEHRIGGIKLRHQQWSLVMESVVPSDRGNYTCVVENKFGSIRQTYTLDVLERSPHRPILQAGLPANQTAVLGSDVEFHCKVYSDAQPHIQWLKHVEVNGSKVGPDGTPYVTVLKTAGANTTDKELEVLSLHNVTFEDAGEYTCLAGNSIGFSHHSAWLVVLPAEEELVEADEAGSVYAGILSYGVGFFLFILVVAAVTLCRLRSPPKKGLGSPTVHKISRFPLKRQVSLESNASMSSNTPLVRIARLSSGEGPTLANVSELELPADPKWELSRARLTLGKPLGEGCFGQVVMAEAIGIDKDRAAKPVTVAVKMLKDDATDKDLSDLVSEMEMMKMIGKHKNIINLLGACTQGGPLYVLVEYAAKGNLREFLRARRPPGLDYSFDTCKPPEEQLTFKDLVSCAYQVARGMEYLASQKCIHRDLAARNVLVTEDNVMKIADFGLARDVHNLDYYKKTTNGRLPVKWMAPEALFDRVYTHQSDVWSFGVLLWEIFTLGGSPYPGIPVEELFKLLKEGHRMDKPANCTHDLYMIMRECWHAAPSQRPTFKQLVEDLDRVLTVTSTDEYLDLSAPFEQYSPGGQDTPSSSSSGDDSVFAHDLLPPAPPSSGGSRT

Compared with PTKNDYWAMLA [WWOX_Y287], FQNSLYAPDFS [FAM92A_Y226_R222Q_YF] is lower in phosphorylation enrichment: 4.3 for the first, 1.47 for the second.

First: PVADPYDQSFE [MAPK14_Y323]
Second: VNFDFYTVNLG [GFPT1_Y367_D366Y_YF]
The phosphorylation enrichment of the first is higher: 0.896 for the first, 0.75 for the second.

Going from KRGASYILKLA [SERPINB1_Y84] to SLTGAYASGIP [POM121C_Y378_T379A], the phosphorylation enrichment falls from 0.76 to 0.602.

First: EEGNPYYSSTR [MCCC2_Y520_A524T]
Second: DPLLTYRFPPN [LMNA_Y481_K486N]
The phosphorylation enrichment of the first is lower: 0.74 for the first, 0.861 for the second.

Compared with IRRIAYEFVEM [ADA_Y84_K80R], VDEERYDIEGK [TNNI3_Y112_A116G] is higher in phosphorylation enrichment: 0.511 for the first, 0.754 for the second.

First: MHDSNCVSKGS [PDGFRA_Y849_Y849C]
Second: RFLRGYHQDAY [HLA-A_Y137_R138H]
The phosphorylation enrichment of the first is lower: 0.485 for the first, 0.895 for the second.

Going from SIKDKYLTALF [KCNH2_Y611_V612L_YF] to AHPIIYDIIEA [PYKtide_D_2014], the phosphorylation enrichment rises from 0.572 to 0.794.

First: AEEKEYHAEEG [EGFR_Y869_G873E]
Second: VGGRIYIDDAL [PKLR_Y218_G222A]
The phosphorylation enrichment of the first is higher: 0.747 for the first, 0.612 for the second.

Compared with VAFVYYKSIGP [ADGRL4_Y302], FTNRNYDLDYD [MYC_Y12] is lower in phosphorylation enrichment: 0.872 for the first, 0.591 for the second.

First: DVYVSYDYGKS [SORL1_Y139]
Second: ICGVSYDEYRY [CFTR_Y512_F508C]
The phosphorylation enrichment of the first is higher: 4.03 for the first, 1.01 for the second.

Compared with LLREWYVQDPY [SIX3_Y225_L226V], KVKPIYLHTQG [AR_Y916_F917L] is lower in phosphorylation enrichment: 0.771 for the first, 0.612 for the second.

Going from YVKEPYIQSRF [HIPK4_Y175] to SGSIHYSCVPR [GLB1_Y57_R59C], the phosphorylation enrichment rises from 0.528 to 0.771.

First: ADMETYLLEKS [MYH7_Y266_I263M]
Second: ISTAGYSIPEL [EDAR_Y406]
The phosphorylation enrichment of the first is lower: 0.582 for the first, 0.697 for the second.

Compared with FEEDSYVKRSQ [RET_Y905_YF], TGDFGYRAPGF [TNS2_Y668_YF] is higher in phosphorylation enrichment: 0.552 for the first, 0.601 for the second.

Going from DAAEDYAEGVC [DHODH_Y194_R199C] to TTKAKYKTPTF [PLD2_Y573_YF], the phosphorylation enrichment falls from 0.895 to 0.309.

Compared with TSIGNYYKPWF [DHCR24_Y299_N294T], HPAGNYSLSSV [ARFGAP3_Y473_Q468H] is lower in phosphorylation enrichment: 4.18 for the first, 0.458 for the second.

In the case of NARGLYFKLHN [GATA2_Y376_C373R_YF], the phosphorylation enrichment was 0.87.

These sequences were tested on Fer (mouse) in the same assay as above.

Going from PTKNDYWAMLA [WWOX_Y287] to FQNSLYAPDFS [FAM92A_Y226_R222Q_YF], the phosphorylation enrichment rises from 0.447 to 3.35.

First: PVADPYDQSFE [MAPK14_Y323]
Second: VNFDFYTVNLG [GFPT1_Y367_D366Y_YF]
The phosphorylation enrichment of the first is higher: 0.759 for the first, 0.758 for the second.

Compared with KRGASYILKLA [SERPINB1_Y84], SLTGAYASGIP [POM121C_Y378_T379A] is higher in phosphorylation enrichment: 0.415 for the first, 0.453 for the second.

First: EEGNPYYSSTR [MCCC2_Y520_A524T]
Second: DPLLTYRFPPN [LMNA_Y481_K486N]
The phosphorylation enrichment of the first is higher: 0.722 for the first, 0.472 for the second.

Compared with IRRIAYEFVEM [ADA_Y84_K80R], VDEERYDIEGK [TNNI3_Y112_A116G] is lower in phosphorylation enrichment: 2.85 for the first, 0.561 for the second.

Going from MHDSNCVSKGS [PDGFRA_Y849_Y849C] to RFLRGYHQDAY [HLA-A_Y137_R138H], the phosphorylation enrichment rises from 0.388 to 0.923.

Compared with SIKDKYLTALF [KCNH2_Y611_V612L_YF], AHPIIYDIIEA [PYKtide_D_2014] is higher in phosphorylation enrichment: 0.484 for the first, 11.9 for the second.

Going from AEEKEYHAEEG [EGFR_Y869_G873E] to VGGRIYIDDAL [PKLR_Y218_G222A], the phosphorylation enrichment rises from 0.494 to 0.547.

First: VAFVYYKSIGP [ADGRL4_Y302]
Second: FTNRNYDLDYD [MYC_Y12]
The phosphorylation enrichment of the first is higher: 0.658 for the first, 0.58 for the second.

Going from DVYVSYDYGKS [SORL1_Y139] to ICGVSYDEYRY [CFTR_Y512_F508C], the phosphorylation enrichment falls from 2.42 to 0.599.

First: LLREWYVQDPY [SIX3_Y225_L226V]
Second: KVKPIYLHTQG [AR_Y916_F917L]
The phosphorylation enrichment of the first is higher: 0.566 for the first, 0.438 for the second.

Going from YVKEPYIQSRF [HIPK4_Y175] to SGSIHYSCVPR [GLB1_Y57_R59C], the phosphorylation enrichment rises from 0.411 to 0.578.

Going from ADMETYLLEKS [MYH7_Y266_I263M] to ISTAGYSIPEL [EDAR_Y406], the phosphorylation enrichment falls from 0.454 to 0.436.

Compared with FEEDSYVKRSQ [RET_Y905_YF], TGDFGYRAPGF [TNS2_Y668_YF] is higher in phosphorylation enrichment: 0.41 for the first, 0.44 for the second.

First: DAAEDYAEGVC [DHODH_Y194_R199C]
Second: TTKAKYKTPTF [PLD2_Y573_YF]
The phosphorylation enrichment of the first is higher: 0.765 for the first, 0.357 for the second.

First: TSIGNYYKPWF [DHCR24_Y299_N294T]
Second: HPAGNYSLSSV [ARFGAP3_Y473_Q468H]
The phosphorylation enrichment of the first is lower: 0.438 for the first, 0.619 for the second.

Work on NARGLYFKLHN [GATA2_Y376_C373R_YF] yielded a phosphorylation enrichment of 0.657.

The sequences below were run against Fes (UniProt P07332) in the same assay as above.
Chain of Fes (P07332 whole entry, looked up): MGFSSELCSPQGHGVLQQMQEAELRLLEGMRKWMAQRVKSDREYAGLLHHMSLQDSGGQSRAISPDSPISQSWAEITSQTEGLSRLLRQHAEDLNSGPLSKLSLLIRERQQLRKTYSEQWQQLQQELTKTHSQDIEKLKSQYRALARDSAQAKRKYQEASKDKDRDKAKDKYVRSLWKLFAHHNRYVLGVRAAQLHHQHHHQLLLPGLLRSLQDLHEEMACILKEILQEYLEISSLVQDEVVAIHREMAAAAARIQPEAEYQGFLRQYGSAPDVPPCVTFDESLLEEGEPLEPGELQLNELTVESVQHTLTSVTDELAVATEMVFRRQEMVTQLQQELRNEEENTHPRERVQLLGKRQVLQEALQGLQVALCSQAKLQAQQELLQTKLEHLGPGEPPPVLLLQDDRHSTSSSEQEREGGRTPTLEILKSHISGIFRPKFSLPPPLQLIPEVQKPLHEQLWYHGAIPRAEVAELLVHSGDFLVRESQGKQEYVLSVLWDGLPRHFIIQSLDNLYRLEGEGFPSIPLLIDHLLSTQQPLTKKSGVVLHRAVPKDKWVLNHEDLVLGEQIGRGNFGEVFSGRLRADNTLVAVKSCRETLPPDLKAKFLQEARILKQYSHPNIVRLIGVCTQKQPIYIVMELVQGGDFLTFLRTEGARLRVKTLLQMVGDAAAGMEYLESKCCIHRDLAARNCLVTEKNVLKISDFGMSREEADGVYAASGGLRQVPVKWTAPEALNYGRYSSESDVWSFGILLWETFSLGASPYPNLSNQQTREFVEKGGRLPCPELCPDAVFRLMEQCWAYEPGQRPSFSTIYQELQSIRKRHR

Going from PTKNDYWAMLA [WWOX_Y287] to FQNSLYAPDFS [FAM92A_Y226_R222Q_YF], the phosphorylation enrichment falls from 1.5 to 0.945.

Compared with PVADPYDQSFE [MAPK14_Y323], VNFDFYTVNLG [GFPT1_Y367_D366Y_YF] is lower in phosphorylation enrichment: 1.86 for the first, 1.33 for the second.

First: KRGASYILKLA [SERPINB1_Y84]
Second: SLTGAYASGIP [POM121C_Y378_T379A]
The phosphorylation enrichment of the first is higher: 1.06 for the first, 0.906 for the second.

First: EEGNPYYSSTR [MCCC2_Y520_A524T]
Second: DPLLTYRFPPN [LMNA_Y481_K486N]
The phosphorylation enrichment of the first is higher: 1.1 for the first, 0.751 for the second.

Going from IRRIAYEFVEM [ADA_Y84_K80R] to VDEERYDIEGK [TNNI3_Y112_A116G], the phosphorylation enrichment rises from 0.872 to 1.3.

Compared with MHDSNCVSKGS [PDGFRA_Y849_Y849C], RFLRGYHQDAY [HLA-A_Y137_R138H] is higher in phosphorylation enrichment: 0.72 for the first, 0.772 for the second.

Going from SIKDKYLTALF [KCNH2_Y611_V612L_YF] to AHPIIYDIIEA [PYKtide_D_2014], the phosphorylation enrichment rises from 0.784 to 2.13.

Compared with AEEKEYHAEEG [EGFR_Y869_G873E], VGGRIYIDDAL [PKLR_Y218_G222A] is lower in phosphorylation enrichment: 1.15 for the first, 1.06 for the second.

First: VAFVYYKSIGP [ADGRL4_Y302]
Second: FTNRNYDLDYD [MYC_Y12]
The phosphorylation enrichment of the first is higher: 1.6 for the first, 1.12 for the second.

Going from DVYVSYDYGKS [SORL1_Y139] to ICGVSYDEYRY [CFTR_Y512_F508C], the phosphorylation enrichment rises from 0.98 to 1.58.

Going from LLREWYVQDPY [SIX3_Y225_L226V] to KVKPIYLHTQG [AR_Y916_F917L], the phosphorylation enrichment falls from 1.05 to 0.728.

Compared with YVKEPYIQSRF [HIPK4_Y175], SGSIHYSCVPR [GLB1_Y57_R59C] is higher in phosphorylation enrichment: 0.77 for the first, 1.15 for the second.

First: ADMETYLLEKS [MYH7_Y266_I263M]
Second: ISTAGYSIPEL [EDAR_Y406]
The phosphorylation enrichment of the first is higher: 1.11 for the first, 0.92 for the second.

Compared with FEEDSYVKRSQ [RET_Y905_YF], TGDFGYRAPGF [TNS2_Y668_YF] is lower in phosphorylation enrichment: 1.11 for the first, 0.784 for the second.

Going from DAAEDYAEGVC [DHODH_Y194_R199C] to TTKAKYKTPTF [PLD2_Y573_YF], the phosphorylation enrichment falls from 1.24 to 0.476.

Going from TSIGNYYKPWF [DHCR24_Y299_N294T] to HPAGNYSLSSV [ARFGAP3_Y473_Q468H], the phosphorylation enrichment falls from 0.868 to 0.666.

Work on NARGLYFKLHN [GATA2_Y376_C373R_YF] yielded a phosphorylation enrichment of 1.34.

These sequences were tested against Fyn (UniProt P06241) in the same assay as above.
Chain of Fyn (P06241 whole entry, looked up): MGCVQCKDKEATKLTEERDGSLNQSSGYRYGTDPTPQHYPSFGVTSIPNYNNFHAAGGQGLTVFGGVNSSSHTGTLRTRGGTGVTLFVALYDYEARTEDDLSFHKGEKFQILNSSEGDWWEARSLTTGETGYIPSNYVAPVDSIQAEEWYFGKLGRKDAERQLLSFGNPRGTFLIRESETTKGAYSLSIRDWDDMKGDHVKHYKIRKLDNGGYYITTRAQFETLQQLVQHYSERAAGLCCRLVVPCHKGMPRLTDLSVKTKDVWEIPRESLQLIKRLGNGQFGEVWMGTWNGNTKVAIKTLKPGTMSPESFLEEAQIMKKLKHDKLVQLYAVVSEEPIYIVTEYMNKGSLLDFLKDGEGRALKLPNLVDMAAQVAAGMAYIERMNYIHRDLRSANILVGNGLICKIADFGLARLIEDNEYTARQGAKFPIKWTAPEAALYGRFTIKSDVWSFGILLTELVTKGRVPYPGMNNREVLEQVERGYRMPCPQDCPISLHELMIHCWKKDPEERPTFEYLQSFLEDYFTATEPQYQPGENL

Compared with PTKNDYWAMLA [WWOX_Y287], FQNSLYAPDFS [FAM92A_Y226_R222Q_YF] is higher in phosphorylation enrichment: 0.695 for the first, 2.08 for the second.

First: PVADPYDQSFE [MAPK14_Y323]
Second: VNFDFYTVNLG [GFPT1_Y367_D366Y_YF]
The phosphorylation enrichment of the first is lower: 0.828 for the first, 3.26 for the second.

First: KRGASYILKLA [SERPINB1_Y84]
Second: SLTGAYASGIP [POM121C_Y378_T379A]
The phosphorylation enrichment of the first is lower: 0.408 for the first, 0.478 for the second.

Compared with EEGNPYYSSTR [MCCC2_Y520_A524T], DPLLTYRFPPN [LMNA_Y481_K486N] is lower in phosphorylation enrichment: 0.921 for the first, 0.51 for the second.

First: IRRIAYEFVEM [ADA_Y84_K80R]
Second: VDEERYDIEGK [TNNI3_Y112_A116G]
The phosphorylation enrichment of the first is lower: 0.417 for the first, 0.506 for the second.

First: MHDSNCVSKGS [PDGFRA_Y849_Y849C]
Second: RFLRGYHQDAY [HLA-A_Y137_R138H]
The phosphorylation enrichment of the first is lower: 0.387 for the first, 0.762 for the second.

First: SIKDKYLTALF [KCNH2_Y611_V612L_YF]
Second: AHPIIYDIIEA [PYKtide_D_2014]
The phosphorylation enrichment of the first is lower: 0.448 for the first, 7.74 for the second.

Compared with AEEKEYHAEEG [EGFR_Y869_G873E], VGGRIYIDDAL [PKLR_Y218_G222A] is lower in phosphorylation enrichment: 0.633 for the first, 0.462 for the second.

Going from VAFVYYKSIGP [ADGRL4_Y302] to FTNRNYDLDYD [MYC_Y12], the phosphorylation enrichment rises from 0.432 to 0.607.

Going from DVYVSYDYGKS [SORL1_Y139] to ICGVSYDEYRY [CFTR_Y512_F508C], the phosphorylation enrichment falls from 7.46 to 0.637.

Going from LLREWYVQDPY [SIX3_Y225_L226V] to KVKPIYLHTQG [AR_Y916_F917L], the phosphorylation enrichment falls from 0.531 to 0.405.

Compared with YVKEPYIQSRF [HIPK4_Y175], SGSIHYSCVPR [GLB1_Y57_R59C] is higher in phosphorylation enrichment: 0.469 for the first, 0.474 for the second.

Going from ADMETYLLEKS [MYH7_Y266_I263M] to ISTAGYSIPEL [EDAR_Y406], the phosphorylation enrichment falls from 0.573 to 0.397.

Compared with FEEDSYVKRSQ [RET_Y905_YF], TGDFGYRAPGF [TNS2_Y668_YF] is higher in phosphorylation enrichment: 0.523 for the first, 0.6 for the second.

Going from DAAEDYAEGVC [DHODH_Y194_R199C] to TTKAKYKTPTF [PLD2_Y573_YF], the phosphorylation enrichment falls from 0.566 to 0.326.

Going from TSIGNYYKPWF [DHCR24_Y299_N294T] to HPAGNYSLSSV [ARFGAP3_Y473_Q468H], the phosphorylation enrichment falls from 0.59 to 0.409.

Sequence NARGLYFKLHN [GATA2_Y376_C373R_YF] has a phosphorylation enrichment of 0.487.
